Experimental data as given in the supplement of paper PMC9876800.

SGK3, construct: aa119-end, sequence (Q96BR1 119-496, looked up): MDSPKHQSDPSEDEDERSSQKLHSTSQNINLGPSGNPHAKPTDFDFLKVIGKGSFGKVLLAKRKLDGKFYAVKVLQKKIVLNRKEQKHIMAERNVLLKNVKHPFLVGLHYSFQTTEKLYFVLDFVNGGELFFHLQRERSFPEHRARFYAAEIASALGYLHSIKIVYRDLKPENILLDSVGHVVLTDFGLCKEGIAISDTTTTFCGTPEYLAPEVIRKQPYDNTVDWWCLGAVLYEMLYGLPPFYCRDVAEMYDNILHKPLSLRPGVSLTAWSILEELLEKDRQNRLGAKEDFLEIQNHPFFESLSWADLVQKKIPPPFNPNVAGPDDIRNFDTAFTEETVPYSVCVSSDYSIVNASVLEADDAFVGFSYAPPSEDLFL
TP53RK, construct: Full length, sequence (Q96S44 whole entry, looked up): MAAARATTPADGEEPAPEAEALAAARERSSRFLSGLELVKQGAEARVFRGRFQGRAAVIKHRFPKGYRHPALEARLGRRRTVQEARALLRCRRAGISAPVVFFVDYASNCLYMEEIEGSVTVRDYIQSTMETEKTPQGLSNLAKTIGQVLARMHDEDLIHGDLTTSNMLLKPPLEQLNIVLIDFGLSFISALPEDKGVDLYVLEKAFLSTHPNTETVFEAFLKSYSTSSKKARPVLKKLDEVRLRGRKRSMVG
AURKB, construct: Full length, sequence (Q96GD4 whole entry, looked up): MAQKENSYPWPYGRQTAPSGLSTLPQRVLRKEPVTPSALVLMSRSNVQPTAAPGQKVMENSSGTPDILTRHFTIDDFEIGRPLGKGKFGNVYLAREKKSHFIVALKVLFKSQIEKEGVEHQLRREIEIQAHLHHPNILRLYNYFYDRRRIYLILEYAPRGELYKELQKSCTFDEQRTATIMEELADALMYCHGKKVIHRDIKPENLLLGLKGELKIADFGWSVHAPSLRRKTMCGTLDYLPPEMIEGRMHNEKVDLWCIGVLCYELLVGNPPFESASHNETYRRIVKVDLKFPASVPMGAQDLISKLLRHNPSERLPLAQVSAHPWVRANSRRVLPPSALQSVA
NEK4, construct: Full length, sequence (P51957 whole entry, looked up): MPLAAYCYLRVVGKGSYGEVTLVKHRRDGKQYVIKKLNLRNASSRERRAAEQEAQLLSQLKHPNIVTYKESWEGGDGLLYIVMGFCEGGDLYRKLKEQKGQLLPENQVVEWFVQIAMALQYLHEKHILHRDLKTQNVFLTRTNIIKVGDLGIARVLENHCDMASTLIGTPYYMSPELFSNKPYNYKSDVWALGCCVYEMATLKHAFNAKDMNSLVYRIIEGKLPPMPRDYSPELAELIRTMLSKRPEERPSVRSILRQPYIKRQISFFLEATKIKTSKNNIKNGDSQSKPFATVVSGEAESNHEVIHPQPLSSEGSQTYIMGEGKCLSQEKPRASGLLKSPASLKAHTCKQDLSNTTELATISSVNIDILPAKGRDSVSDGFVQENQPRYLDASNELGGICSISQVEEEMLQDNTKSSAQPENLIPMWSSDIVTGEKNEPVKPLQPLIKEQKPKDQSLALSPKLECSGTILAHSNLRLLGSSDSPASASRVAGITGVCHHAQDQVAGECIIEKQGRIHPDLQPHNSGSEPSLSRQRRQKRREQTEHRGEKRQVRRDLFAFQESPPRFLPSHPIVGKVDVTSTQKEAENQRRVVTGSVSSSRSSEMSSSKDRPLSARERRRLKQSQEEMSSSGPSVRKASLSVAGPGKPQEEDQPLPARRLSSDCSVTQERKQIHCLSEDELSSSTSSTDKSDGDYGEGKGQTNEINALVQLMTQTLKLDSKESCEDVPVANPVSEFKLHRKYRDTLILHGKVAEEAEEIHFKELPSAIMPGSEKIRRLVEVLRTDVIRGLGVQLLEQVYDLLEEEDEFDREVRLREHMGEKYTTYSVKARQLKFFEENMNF
NEK11, construct: Full length, sequence (Q8NG66 whole entry, looked up): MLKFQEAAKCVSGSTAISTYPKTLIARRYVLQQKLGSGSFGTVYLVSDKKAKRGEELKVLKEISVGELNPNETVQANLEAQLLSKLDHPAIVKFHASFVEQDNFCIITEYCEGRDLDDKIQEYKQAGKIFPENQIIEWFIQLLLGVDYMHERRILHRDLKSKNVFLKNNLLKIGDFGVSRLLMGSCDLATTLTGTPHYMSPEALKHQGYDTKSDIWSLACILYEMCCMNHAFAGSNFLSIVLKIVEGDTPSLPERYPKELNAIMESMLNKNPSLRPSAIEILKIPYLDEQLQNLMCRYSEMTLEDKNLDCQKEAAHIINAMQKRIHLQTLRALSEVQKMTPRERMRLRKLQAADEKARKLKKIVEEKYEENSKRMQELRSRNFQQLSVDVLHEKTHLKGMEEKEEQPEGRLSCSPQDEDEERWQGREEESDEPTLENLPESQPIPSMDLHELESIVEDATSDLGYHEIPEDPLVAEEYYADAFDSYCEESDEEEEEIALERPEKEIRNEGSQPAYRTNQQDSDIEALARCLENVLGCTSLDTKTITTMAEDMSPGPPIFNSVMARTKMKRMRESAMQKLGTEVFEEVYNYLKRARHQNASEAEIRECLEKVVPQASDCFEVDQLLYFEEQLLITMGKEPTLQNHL
GRK7, construct: Full length, sequence (Q8WTQ7 whole entry, looked up): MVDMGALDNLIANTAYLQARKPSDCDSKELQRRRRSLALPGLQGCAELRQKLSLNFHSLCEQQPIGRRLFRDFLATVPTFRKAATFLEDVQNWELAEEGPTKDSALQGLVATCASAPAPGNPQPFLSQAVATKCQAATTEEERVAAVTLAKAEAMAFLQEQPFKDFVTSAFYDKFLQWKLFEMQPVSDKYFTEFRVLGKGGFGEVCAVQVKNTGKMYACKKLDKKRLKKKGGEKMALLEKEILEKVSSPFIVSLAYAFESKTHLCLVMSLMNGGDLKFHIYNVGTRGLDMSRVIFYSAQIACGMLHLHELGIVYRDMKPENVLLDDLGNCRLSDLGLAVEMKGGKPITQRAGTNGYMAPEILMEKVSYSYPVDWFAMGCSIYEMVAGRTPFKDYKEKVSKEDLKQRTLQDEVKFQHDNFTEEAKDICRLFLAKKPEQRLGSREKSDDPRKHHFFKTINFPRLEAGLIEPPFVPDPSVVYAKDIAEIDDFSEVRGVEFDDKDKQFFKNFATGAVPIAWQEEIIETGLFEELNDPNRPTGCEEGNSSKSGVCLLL
GRK2, construct: Full length, sequence (P25098 whole entry, looked up): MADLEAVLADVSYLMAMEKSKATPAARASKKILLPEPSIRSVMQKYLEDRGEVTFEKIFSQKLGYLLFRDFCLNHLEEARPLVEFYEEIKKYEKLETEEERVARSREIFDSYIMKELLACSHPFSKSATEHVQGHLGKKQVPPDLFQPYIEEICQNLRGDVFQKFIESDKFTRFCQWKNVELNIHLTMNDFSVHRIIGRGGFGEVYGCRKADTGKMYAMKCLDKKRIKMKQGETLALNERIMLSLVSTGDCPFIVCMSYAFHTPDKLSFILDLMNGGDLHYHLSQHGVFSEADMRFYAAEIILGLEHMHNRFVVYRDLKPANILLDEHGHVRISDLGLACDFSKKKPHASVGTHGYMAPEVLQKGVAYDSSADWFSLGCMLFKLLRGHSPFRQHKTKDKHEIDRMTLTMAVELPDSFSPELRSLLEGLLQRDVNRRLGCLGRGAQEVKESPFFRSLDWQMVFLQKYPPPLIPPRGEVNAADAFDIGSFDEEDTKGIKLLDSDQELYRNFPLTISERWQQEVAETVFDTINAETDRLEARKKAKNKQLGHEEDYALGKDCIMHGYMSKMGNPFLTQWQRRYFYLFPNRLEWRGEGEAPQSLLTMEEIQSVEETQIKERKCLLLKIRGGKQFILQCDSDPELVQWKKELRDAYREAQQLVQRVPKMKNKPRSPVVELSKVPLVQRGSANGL

What follows are substances tested on peptide library, one residue held at a place counted from the S/T acceptor (assay: relative phosphorylation of the sub-library (ratio to the mean residue at this position); human; higher = residue favoured). Settings: A fixed; at +1.
Procedure, shortened: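 Human or orthologue kinase constructs, purified and recombinant, were incubated under kinase-specific conditions in 384-well plates with biotinylated degenerate peptide sub-libraries. Each sub-library fixed one residue at one position around a central Ser/Thr. Incubations lasted 90 min with peptides at 50 μM and 50 μM ATP spiked with γ-32P-ATP, after which spots on streptavidin membranes were phosphorimaged and quantified by densitometry. Relative sub-library phosphorylation is a ratio to the mean residue at that position.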
Substance “NEK11, construct: Full length (from UniProt Q8NG66)” has a relative phosphorylation of 0.432. With “MKNK1, construct: Full length (D165-205) (from UniProt Q9BUB5)” the relative phosphorylation was 0.571. In the case of “TP53RK, construct: Full length (from UniProt Q96S44)”, the relative phosphorylation was 0.941. For “GRK2, construct: Full length (from UniProt P25098)”, the relative phosphorylation was 0.812. For “NEK4, construct: Full length (from UniProt P51957)”, the relative phosphorylation was 0.695. With “AURKB, construct: Full length (from UniProt Q96GD4)” the relative phosphorylation was 0.803. Work on “SGK3, construct: aa119-end (from UniProt Q96BR1)” yielded a relative phosphorylation of 0.678. “GRK7, construct: Full length (from UniProt Q8WTQ7)” was tested, and the relative phosphorylation was 0.839.

Same assay, conditions: A fixed; at +2
Substance “NEK11, construct: Full length (from UniProt Q8NG66)” has a relative phosphorylation of 0.613. Work on “MKNK1, construct: Full length (D165-205) (from UniProt Q9BUB5)” yielded a relative phosphorylation of 0.643. In the case of “TP53RK, construct: Full length (from UniProt Q96S44)”, the relative phosphorylation was 0.938. For “GRK2, construct: Full length (from UniProt P25098)”, the relative phosphorylation was 1.17. For “NEK4, construct: Full length (from UniProt P51957)”, the relative phosphorylation was 0.961. With “AURKB, construct: Full length (from UniProt Q96GD4)” the relative phosphorylation was 0.959. For “SGK3, construct: aa119-end (from UniProt Q96BR1)”, the relative phosphorylation was 1.24. “GRK7, construct: Full length (from UniProt Q8WTQ7)” gave a relative phosphorylation of 1.23.

Same assay, conditions: A fixed; at +3
Substance “NEK11, construct: Full length (from UniProt Q8NG66)” has a relative phosphorylation of 0.845. “MKNK1, construct: Full length (D165-205) (from UniProt Q9BUB5)” showed a relative phosphorylation of 0.663. “TP53RK, construct: Full length (from UniProt Q96S44)” gave a relative phosphorylation of 1.06. For “GRK2, construct: Full length (from UniProt P25098)”, the relative phosphorylation was 0.782. “NEK4, construct: Full length (from UniProt P51957)” was tested, and the relative phosphorylation was 0.797. “AURKB, construct: Full length (from UniProt Q96GD4)” gave a relative phosphorylation of 0.784. Work on “SGK3, construct: aa119-end (from UniProt Q96BR1)” yielded a relative phosphorylation of 1.05. “GRK7, construct: Full length (from UniProt Q8WTQ7)” gave a relative phosphorylation of 0.77.

Same assay, conditions: A fixed; at +4
“NEK11, construct: Full length (from UniProt Q8NG66)” was tested, and the relative phosphorylation was 0.834. For “MKNK1, construct: Full length (D165-205) (from UniProt Q9BUB5)”, the relative phosphorylation was 0.758. “TP53RK, construct: Full length (from UniProt Q96S44)” gave a relative phosphorylation of 0.947. “GRK2, construct: Full length (from UniProt P25098)” gave a relative phosphorylation of 0.874. “NEK4, construct: Full length (from UniProt P51957)” showed a relative phosphorylation of 0.821. “AURKB, construct: Full length (from UniProt Q96GD4)” was tested, and the relative phosphorylation was 0.784. “SGK3, construct: aa119-end (from UniProt Q96BR1)” gave a relative phosphorylation of 1.13. For “GRK7, construct: Full length (from UniProt Q8WTQ7)”, the relative phosphorylation was 1.09.

Same assay, conditions: A fixed; at -1
In the case of “NEK11, construct: Full length (from UniProt Q8NG66)”, the relative phosphorylation was 0.977. “MKNK1, construct: Full length (D165-205) (from UniProt Q9BUB5)” showed a relative phosphorylation of 0.958. “TP53RK, construct: Full length (from UniProt Q96S44)” showed a relative phosphorylation of 1.23. Work on “GRK2, construct: Full length (from UniProt P25098)” yielded a relative phosphorylation of 0.876. “NEK4, construct: Full length (from UniProt P51957)” gave a relative phosphorylation of 1.32. Substance “AURKB, construct: Full length (from UniProt Q96GD4)” has a relative phosphorylation of 0.651. In the case of “SGK3, construct: aa119-end (from UniProt Q96BR1)”, the relative phosphorylation was 1.04. With “GRK7, construct: Full length (from UniProt Q8WTQ7)” the relative phosphorylation was 0.809.

Same assay, conditions: A fixed; at -2
Work on “NEK11, construct: Full length (from UniProt Q8NG66)” yielded a relative phosphorylation of 1.38. For “MKNK1, construct: Full length (D165-205) (from UniProt Q9BUB5)”, the relative phosphorylation was 0.862. Substance “TP53RK, construct: Full length (from UniProt Q96S44)” has a relative phosphorylation of 1.24. “GRK2, construct: Full length (from UniProt P25098)” showed a relative phosphorylation of 0.822. Substance “NEK4, construct: Full length (from UniProt P51957)” has a relative phosphorylation of 0.985. Work on “AURKB, construct: Full length (from UniProt Q96GD4)” yielded a relative phosphorylation of 0.28. “SGK3, construct: aa119-end (from UniProt Q96BR1)” showed a relative phosphorylation of 1.27. With “GRK7, construct: Full length (from UniProt Q8WTQ7)” the relative phosphorylation was 0.805.

Same assay, conditions: A fixed; at -3
Substance “NEK11, construct: Full length (from UniProt Q8NG66)” has a relative phosphorylation of 1.06. “MKNK1, construct: Full length (D165-205) (from UniProt Q9BUB5)” was tested, and the relative phosphorylation was 0.744. “TP53RK, construct: Full length (from UniProt Q96S44)” showed a relative phosphorylation of 1.01. For “GRK2, construct: Full length (from UniProt P25098)”, the relative phosphorylation was 1.03. Work on “NEK4, construct: Full length (from UniProt P51957)” yielded a relative phosphorylation of 1.18. “AURKB, construct: Full length (from UniProt Q96GD4)” gave a relative phosphorylation of 0.727. Substance “SGK3, construct: aa119-end (from UniProt Q96BR1)” has a relative phosphorylation of 0.733. With “GRK7, construct: Full length (from UniProt Q8WTQ7)” the relative phosphorylation was 0.636.

Same assay, conditions: A fixed; at -4
In the case of “NEK11, construct: Full length (from UniProt Q8NG66)”, the relative phosphorylation was 0.887. In the case of “MKNK1, construct: Full length (D165-205) (from UniProt Q9BUB5)”, the relative phosphorylation was 0.882. In the case of “TP53RK, construct: Full length (from UniProt Q96S44)”, the relative phosphorylation was 1.17. “GRK2, construct: Full length (from UniProt P25098)” was tested, and the relative phosphorylation was 0.901. With “NEK4, construct: Full length (from UniProt P51957)” the relative phosphorylation was 1.02. Substance “AURKB, construct: Full length (from UniProt Q96GD4)” has a relative phosphorylation of 1.01. For “SGK3, construct: aa119-end (from UniProt Q96BR1)”, the relative phosphorylation was 1.07. “GRK7, construct: Full length (from UniProt Q8WTQ7)” showed a relative phosphorylation of 0.878.

Same assay, conditions: A fixed; at -5
“NEK11, construct: Full length (from UniProt Q8NG66)” showed a relative phosphorylation of 1.02. Work on “MKNK1, construct: Full length (D165-205) (from UniProt Q9BUB5)” yielded a relative phosphorylation of 1.25. “TP53RK, construct: Full length (from UniProt Q96S44)” gave a relative phosphorylation of 1.05. In the case of “GRK2, construct: Full length (from UniProt P25098)”, the relative phosphorylation was 0.914. “NEK4, construct: Full length (from UniProt P51957)” showed a relative phosphorylation of 0.983. “AURKB, construct: Full length (from UniProt Q96GD4)” was tested, and the relative phosphorylation was 1.08. “SGK3, construct: aa119-end (from UniProt Q96BR1)” showed a relative phosphorylation of 1.07. With “GRK7, construct: Full length (from UniProt Q8WTQ7)” the relative phosphorylation was 0.87.

Same assay, conditions: D fixed; at +1
“NEK11, construct: Full length (from UniProt Q8NG66)” was tested, and the relative phosphorylation was 0.25. “MKNK1, construct: Full length (D165-205) (from UniProt Q9BUB5)” was tested, and the relative phosphorylation was 0.289. In the case of “TP53RK, construct: Full length (from UniProt Q96S44)”, the relative phosphorylation was 1.03. “GRK2, construct: Full length (from UniProt P25098)” gave a relative phosphorylation of 1.1. “NEK4, construct: Full length (from UniProt P51957)” gave a relative phosphorylation of 0.169. With “AURKB, construct: Full length (from UniProt Q96GD4)” the relative phosphorylation was 0.673. Work on “SGK3, construct: aa119-end (from UniProt Q96BR1)” yielded a relative phosphorylation of 0.294. With “GRK7, construct: Full length (from UniProt Q8WTQ7)” the relative phosphorylation was 0.701.

Same assay, conditions: D fixed; at +2
“NEK11, construct: Full length (from UniProt Q8NG66)” was tested, and the relative phosphorylation was 0.395. “MKNK1, construct: Full length (D165-205) (from UniProt Q9BUB5)” gave a relative phosphorylation of 0.373. “TP53RK, construct: Full length (from UniProt Q96S44)” showed a relative phosphorylation of 1.01. “GRK2, construct: Full length (from UniProt P25098)” showed a relative phosphorylation of 0.929. In the case of “NEK4, construct: Full length (from UniProt P51957)”, the relative phosphorylation was 0.409.
